Measured values taken from PMC10733300, “ANKS1A regulates LDL receptor-related protein 1 (LRP1)-mediated cerebrovascular clearance in brain endothelial cells” (Nature Communications, 2023).

Test system: iBBB (human iPSC-derived BBB)
Experiment: Aβ(1–40) / Aβ(1–42) transcytosis and paracellular permeability assay, iBBB (transwell)
Details: Cy3-labeled Aβ(1–40) added to the abluminal side, 20 nM, 37 °C, 1 h, fluorescence
Method: For iBBBs, iPSC-derived brain endothelial cells (iECs) were dissociated by Accutase, resuspended with hECSR1 supplemented with 10 μM Y27632 and then seeded onto a 24-well Matrigel-coated Transwell at a density of 10^6 cells per cm^2 to complete a confluent monolayer for 24 h. Afterwards, the iPCs, iASs or MEFs were seeded on top of the iEC monolayer culture at a density of 5 × 10^4 cells per cm^2. The iBBBs were further cultured for 12 or 14 days.
For analysis of bottom (apical) to top (basolateral) permeability, 500 μl of medium containing the fluorescent proteins was added to the lower chamber; for analysis of top to bottom permeability, 100 μl medium of the fluorescent proteins was added to the top chamber. Permeability assays were conducted at 37 °C for 1 h. Media from the bottom chamber or the top transwell insert were collected and analyzed by a fluorescence plate reader (Molecular Devices). The rationale for using the indicated final concentrations for each protein was that the levels of diffused or transcytosed proteins were within a detectable range via fluorescence.

Substance: Aβ(1-40): Cy3-labeled amyloid beta (1–40) peptide used as fluorescent permeant at 20 nM in the BBB models
- increase of permeability in WT iBBB compared to iECs co-cultured with MEFs: 12%
